This is an account of results in article PMC10403316.

Several values for one entry are separate records, joined by “and”; a condition that tells them apart may be missing. Identical values can stand only once.

The term stoichiometry N denotes the number of molecules, sites or subunits per partner or assembly.

In assay [1] the target is human UBR5 E3 ubiquitin ligase, full length, with an N-terminal FLAG tag (human) (UniProt O95071). Description: cryo-EM structure. Particulars: remark: other sources report otherwise.
The target is the same in assay [2]. Description: SEC. Particulars: remark: other sources report otherwise.

In the case of “human UBR5 E3 ubiquitin ligase, full length, with an N-terminal FLAG tag, O95071 1-2799”, the stoichiometry N in assay [1] was 2; in assay [2], 2 and 4.
